Source: publication PMC3547835

Experiments:
[1] = biological target: RHDV VP60 P domain fragment (a.a. 228-579), JX/CHA/97 isolate strain (rabbit hemorrhagic disease virus (JX/CHA/97 isolate strain)); experiment: crystal structure; P domain (a.a. 228-579) crystals, space group P212121, hanging drop at 289 K, 0.1 M sodium acetate, 1.1 M succinic acid pH 5.5, 1.0% PEG2000MME; 2.0 Å; dimer in the asymmetric unit
[2] = biological target: RHDV major capsid protein VP60 (in the native virion, HYD isolate strain) (rabbit hemorrhagic disease virus (HYD isolate strain)); experiment: cryo-EM structure; RHDV virions purified from infected rabbit livers, TNE buffer, vitrified; FEI Titan Krios 300 keV; ~36,000 particles; 6.5 Å overall (FSC 0.5), 5.5 Å in the inner shell; pseudo-atomic model by docking of the S and P crystal structures and MDFF

Substance	stoichiometry N [1]	stoichiometry N [2]
RHDV VP60 P domain fragment (a.a. 228-579), JX/CHA/97 isolate strain (domain or fragment)	2	–
RHDV major capsid protein VP60 (in the native virion, HYD isolate strain) (natural protein)	–	180
